Source: PMC11417369, “DNA sequence and chromatin differentiate sequence-specific transcription factor binding in the human malaria parasite Plasmodium falciparum”

B1: CACACA_site905 (dsDNA)
DNA 1: AAAAAGGAGAAACACACACACACACCCATATATATA
DNA 2: TATATATATGGGTGTGTGTGTGTGTTTCTCCTTTTT
B2: CACACA_site4429 (dsDNA)
DNA 1: TAAACATACAGATACACACACACACCCACAGAGACA
DNA 2: TGTCTCTGTGGGTGTGTGTGTGTATCTGTATGTTTA
B3: CACACA_site8452 (dsDNA)
DNA 1: AAAAAAAAAAAACATACACACACATATATATATATA
DNA 2: TATATATATATATGTGTGTGTATGTTTTTTTTTTTT
B4: CACACA_site3390 (dsDNA)
DNA 1: ACAAAATAAAAACACACACACAAACACAAAAAAATA
DNA 2: TATTTTTTTGTGTTTGTGTGTGTGTTTTTATTTTGT
B5: CACACA_site7828 (dsDNA)
DNA 1: TATATAAATAGACACACACACACCTTATAATTACTA
DNA 2: TAGTAATTATAAGGTGTGTGTGTGTCTATTTATATA
B6: CACACA_site517 (dsDNA)
DNA 1: AATTAACAAAAACACACACACACACCCACAAAAAAA
DNA 2: TTTTTTTGTGGGTGTGTGTGTGTGTTTTTGTTAATT
B7: CACACA_site9096 (dsDNA)
DNA 1: TCATAAATTAAACACACACACACATCTGGATACCCC
DNA 2: GGGGTATCCAGATGTGTGTGTGTGTTTAATTTATGA
B8: CACACA_site8035 (dsDNA)
DNA 1: TAAGTATACACATACACACACACACTAATAAAAAAA
DNA 2: TTTTTTTATTAGTGTGTGTGTGTATGTGTATACTTA
B9: CACACA_site5977 (dsDNA)
DNA 1: AATGACAACCTTGTCACACATATATATATATATATA
DNA 2: TATATATATATATATATGTGTGACAAGGTTGTCATT
B10: CACACA_site268 (dsDNA)
DNA 1: AATATAAACCCAAACACACACATATATATATATATA
DNA 2: TATATATATATATATGTGTGTGTTTGGGTTTATATT
B11: CACACA_site4351 (dsDNA)
DNA 1: CCCACAGACGGACACACACACATATATATATATATA
DNA 2: TATATATATATATATGTGTGTGTGTCCGTCTGTGGG
B12: CACACA_site452 (dsDNA)
DNA 1: CACAAAGACACAAACACACACACACCCACATACATA
DNA 2: TATGTATGTGGGTGTGTGTGTGTTTGTGTCTTTGTG
B13: CACACA_site8266 (dsDNA)
DNA 1: TATGCATATACACAAGCACACATATATATATATATA
DNA 2: TATATATATATATATGTGTGCTTGTGTATATGCATA
B14: CACACA_site8278 (dsDNA)
DNA 1: GTAACATACACATATACACACACACCGATATACATA
DNA 2: TATGTATATCGGTGTGTGTGTATATGTGTATGTTAC
B15: CACACA_site3391 (dsDNA)
DNA 1: AAAAAAAAAAAAAACACACATACACGCCCACCCATA
DNA 2: TATGGGTGGGCGTGTATGTGTGTTTTTTTTTTTTTT
B16: CACACA_site9270 (dsDNA)
DNA 1: AAAAAAAAAAAATATACACACACACCGACACATAAA
DNA 2: TTTATGTGTCGGTGTGTGTGTATATTTTTTTTTTTT
B17: CACACA_site8234 (dsDNA)
DNA 1: CTATTTCATAAACACACACACACAAACAAACATATA
DNA 2: TATATGTTTGTTTGTGTGTGTGTGTTTATGAAATAG
B18: CACACA_site2423 (dsDNA)
DNA 1: GTGCATAAATCATACACACACACATATATATATATA
DNA 2: TATATATATATATGTGTGTGTGTATGATTTATGCAC
B19: CACACA_site6447 (dsDNA)
DNA 1: AATACACGCAGACACACACACACACGCACATATATA
DNA 2: TATATATGTGCGTGTGTGTGTGTGTCTGCGTGTATT
B20: CACACA_site773 (dsDNA)
DNA 1: TATATATAGAAACACACACACATATATATATATATA
DNA 2: TATATATATATATATGTGTGTGTGTTTCTATATATA
B21: CACACA_site2539 (dsDNA)
DNA 1: TATATATAGAAACACACACACACATATATATATATT
DNA 2: AATATATATATATGTGTGTGTGTGTTTCTATATATA
B22: CACACA_site2248 (dsDNA)
DNA 1: TATACATAGAAACACACACACATATATATATATATA
DNA 2: TATATATATATATATGTGTGTGTGTTTCTATGTATA
B23: CACACA_site4294 (dsDNA)
DNA 1: TTTATTAATGGACACACACACACACCCAAAATAAAA
DNA 2: TTTTATTTTGGGTGTGTGTGTGTGTCCATTAATAAA
B24: CACACA_site242 (dsDNA)
DNA 1: TTTATTAAGAAACACACACACACACCCAAAATAAAA
DNA 2: TTTTATTTTGGGTGTGTGTGTGTGTTTCTTAATAAA
B25: CACACA_site5250 (dsDNA)
DNA 1: CGCGCCCAGAAACACACACACACACCGATATATATA
DNA 2: TATATATATCGGTGTGTGTGTGTGTTTCTGGGCGCG
B26: CACACA_site5033 (dsDNA)
DNA 1: TCATAGTATGGACACACACACACACCCATATATATA
DNA 2: TATATATATGGGTGTGTGTGTGTGTCCATACTATGA
B27: CACACA_site363 (dsDNA)
DNA 1: CACACCCACAGACACACACACACATATATATATATA
DNA 2: TATATATATATATGTGTGTGTGTGTCTGTGGGTGTG
B28: CACACA_site5591 (dsDNA)
DNA 1: ATAATATAAACATACACACACACATATATATATATA
DNA 2: TATATATATATATGTGTGTGTGTATGTTTATATTAT
B29: CACACA_site4354 (dsDNA)
DNA 1: CACAGACACGGACACACACACACACCCATATATATA
DNA 2: TATATATATGGGTGTGTGTGTGTGTCCGTGTCTGTG
B30: CACACA_site7866 (dsDNA)
DNA 1: GGATATAACAGACACACACACACATATAAATATATT
DNA 2: AATATATTTATATGTGTGTGTGTGTCTGTTATATCC
B31: CACACA_site6448 (dsDNA)
DNA 1: AAAATACACGCATACACACACACACGCGCACATATA
DNA 2: TATATGTGCGCGTGTGTGTGTGTATGCGTGTATTTT
B32: CACACA_site4314 (dsDNA)
DNA 1: AATAAATAAAGAAGTACACACATATATATATATATA
DNA 2: TATATATATATATATGTGTGTACTTCTTTATTTATT

Biological target: T1, AP2-LT D1 (Plasmodium falciparum, UniProt Q8IAM1 2520-2577)
T1 sequence: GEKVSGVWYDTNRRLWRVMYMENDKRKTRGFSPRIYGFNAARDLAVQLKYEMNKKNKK
Assay: gcPBM; about 25 ug protein; PBS, 1% milk, 0.2 mg/ml BSA, salmon testes DNA, 0.03% Triton X-100
Conditions: tags: N-terminal GST (pGEX-4T-1), kept; label: surface-attached array probe

Point of comparison: B19, binding signal 10.3 ln median PBM intensity, better of two orientations. Against it:
- B1 — lower, 10.2 ln median PBM intensity, better of two orientations
- B2 — lower, 10.1 ln median PBM intensity, better of two orientations
- B3 — the same, 10.3 ln median PBM intensity, better of two orientations
- B4 — lower, 10.1 ln median PBM intensity, better of two orientations
- B5 — lower, 10.2 ln median PBM intensity, better of two orientations
- B6 — the same, 10.3 ln median PBM intensity, better of two orientations
- B7 — lower, 10.1 ln median PBM intensity, better of two orientations
- B8 — lower, 10.2 ln median PBM intensity, better of two orientations
- B9 — lower, 10.2 ln median PBM intensity, better of two orientations
- B10 — the same, 10.3 ln median PBM intensity, better of two orientations
- B11 — lower, 10.2 ln median PBM intensity, better of two orientations
- B12 — lower, 10 ln median PBM intensity, better of two orientations
- B13 — lower, 10.1 ln median PBM intensity, better of two orientations
- B14 — lower, 10 ln median PBM intensity, better of two orientations
- B15 — lower, 10.1 ln median PBM intensity, better of two orientations
- B16 — lower, 10.2 ln median PBM intensity, better of two orientations
- B17 — lower, 10.2 ln median PBM intensity, better of two orientations
- B18 — lower, 10 ln median PBM intensity, better of two orientations
- B20 — the same, 10.3 ln median PBM intensity, better of two orientations
- B21 — lower, 10.1 ln median PBM intensity, better of two orientations
- B22 — lower, 10.2 ln median PBM intensity, better of two orientations
- B23 — lower, 10.1 ln median PBM intensity, better of two orientations
- B24 — lower, 10.1 ln median PBM intensity, better of two orientations
- B25 — lower, 10.2 ln median PBM intensity, better of two orientations
- B26 — lower, 10.2 ln median PBM intensity, better of two orientations
- B27 — the same, 10.3 ln median PBM intensity, better of two orientations
- B28 — lower, 10.1 ln median PBM intensity, better of two orientations
- B29 — the same, 10.3 ln median PBM intensity, better of two orientations
- B30 — higher, 10.4 ln median PBM intensity, better of two orientations
- B31 — lower, 10.2 ln median PBM intensity, better of two orientations
- B32 — the same, 10.3 ln median PBM intensity, better of two orientations
